The values below come from publication PMC3176292, “Mutations in Protein-Binding Hot-Spots on the Hub Protein Smad3 Differentially Affect Its Protein Interactions and Smad3-Regulated Gene Expression” (PLoS ONE, 2011).

Holding throughout (assay): co-IP; LUMIER: Renilla luciferase-Smad3 and Flag-tagged partner co-expressed with constitutively active Alk5 in HEK-293; Flag protein captured from cleared lysate (TNE: 10 mM Tris-HCl pH 7.8, 150 mM NaCl, 1 mM EDTA, 1% Igepal CA-630) on anti-Flag 96-well plates, 2 h at 4 °C; co-precipitated Renilla luciferase activity, TrxGA background subtracted, percent of wild-type Smad3
Common to all, as to conditions: partners not purified

One experiment deals with T1, Flag-SARA, full length (UniProt O95405 1-1425).
T1 construct: SARA; plasmid pCMV5b-Flag-SARA; also called SARA FL; source: HEK-293, transfected, in lysate
T1 sequence (looked up): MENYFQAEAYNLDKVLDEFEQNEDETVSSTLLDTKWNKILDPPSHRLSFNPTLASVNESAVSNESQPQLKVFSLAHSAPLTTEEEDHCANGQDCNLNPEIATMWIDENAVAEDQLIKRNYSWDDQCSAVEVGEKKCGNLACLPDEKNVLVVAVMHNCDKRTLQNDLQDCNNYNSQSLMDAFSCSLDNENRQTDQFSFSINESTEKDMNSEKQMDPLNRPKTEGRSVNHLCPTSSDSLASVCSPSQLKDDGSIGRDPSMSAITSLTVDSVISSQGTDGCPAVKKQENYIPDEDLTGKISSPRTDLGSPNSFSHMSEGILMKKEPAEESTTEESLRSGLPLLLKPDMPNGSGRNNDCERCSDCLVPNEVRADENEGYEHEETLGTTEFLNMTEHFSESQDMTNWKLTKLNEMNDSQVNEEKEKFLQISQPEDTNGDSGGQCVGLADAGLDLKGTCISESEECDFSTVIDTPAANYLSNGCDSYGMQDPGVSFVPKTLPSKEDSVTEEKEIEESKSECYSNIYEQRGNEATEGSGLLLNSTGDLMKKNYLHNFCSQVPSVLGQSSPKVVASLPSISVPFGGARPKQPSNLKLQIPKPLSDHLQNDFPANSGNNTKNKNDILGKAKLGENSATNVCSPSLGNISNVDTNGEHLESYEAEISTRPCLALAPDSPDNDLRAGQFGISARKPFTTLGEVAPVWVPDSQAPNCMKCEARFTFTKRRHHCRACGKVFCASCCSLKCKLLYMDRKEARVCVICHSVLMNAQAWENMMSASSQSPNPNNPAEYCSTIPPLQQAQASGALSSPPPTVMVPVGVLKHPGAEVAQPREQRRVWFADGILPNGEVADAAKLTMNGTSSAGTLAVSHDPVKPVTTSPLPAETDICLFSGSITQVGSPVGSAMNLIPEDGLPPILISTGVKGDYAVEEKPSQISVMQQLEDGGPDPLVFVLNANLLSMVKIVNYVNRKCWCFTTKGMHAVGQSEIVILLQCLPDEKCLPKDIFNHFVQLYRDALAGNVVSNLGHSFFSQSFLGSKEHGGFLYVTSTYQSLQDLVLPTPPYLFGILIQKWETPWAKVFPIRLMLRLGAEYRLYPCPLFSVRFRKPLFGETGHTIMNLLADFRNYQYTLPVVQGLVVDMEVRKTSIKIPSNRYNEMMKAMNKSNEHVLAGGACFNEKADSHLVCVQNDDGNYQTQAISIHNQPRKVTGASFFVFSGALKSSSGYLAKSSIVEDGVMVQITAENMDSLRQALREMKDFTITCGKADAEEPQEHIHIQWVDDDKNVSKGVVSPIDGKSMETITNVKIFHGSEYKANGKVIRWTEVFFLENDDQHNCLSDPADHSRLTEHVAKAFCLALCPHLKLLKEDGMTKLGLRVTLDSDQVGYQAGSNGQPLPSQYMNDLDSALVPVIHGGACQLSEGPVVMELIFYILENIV

For the next experiment, the target named is T2, Flag-Smad4, full length (UniProt Q13485 1-552).
T2 construct: Smad4; plasmid pCMV5-Flag-Smad4 (from J. Massagué); also called Smad4 FL; source: HEK-293, transfected, in lysate
T2 sequence (looked up): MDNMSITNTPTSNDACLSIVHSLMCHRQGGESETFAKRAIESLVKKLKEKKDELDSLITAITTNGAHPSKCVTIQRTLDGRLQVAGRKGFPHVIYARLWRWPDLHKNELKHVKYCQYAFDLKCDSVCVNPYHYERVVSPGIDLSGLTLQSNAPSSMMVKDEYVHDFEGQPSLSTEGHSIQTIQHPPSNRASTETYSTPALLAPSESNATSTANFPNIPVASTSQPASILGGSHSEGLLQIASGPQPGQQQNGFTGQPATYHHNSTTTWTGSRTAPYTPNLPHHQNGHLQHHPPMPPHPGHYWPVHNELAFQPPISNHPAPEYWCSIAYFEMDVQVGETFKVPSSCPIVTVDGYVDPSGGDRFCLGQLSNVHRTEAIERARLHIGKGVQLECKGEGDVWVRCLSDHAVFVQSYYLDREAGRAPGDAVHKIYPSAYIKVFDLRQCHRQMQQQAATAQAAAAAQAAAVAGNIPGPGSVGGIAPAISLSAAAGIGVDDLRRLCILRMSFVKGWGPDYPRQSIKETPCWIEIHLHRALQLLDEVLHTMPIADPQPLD

In experiment [1] the target is T3, Ski Smad-binding domain (amino acids 2–56) on the 3xFlag-thioredoxin scaffold (UniProt P12755 2-56).
T3 construct: Ski, amino acids 2–56; cloned into the unique RsrII site of pCI-3xFLAG-Trx; also called Ski aa2–56; TrxSki; source: HEK-293, transfected, in lysate
T3 sequence (looked up): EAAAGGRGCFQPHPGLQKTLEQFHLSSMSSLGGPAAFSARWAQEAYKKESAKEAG

B1: Renilla luciferase-Smad3 C338A (natural protein, UniProt P84022 1-425, looked up)
chain: MSSILPFTPPIVKRLLGWKKGEQNGQEEKWCEKAVKSLVKKLKKTGQLDELEKAITTQNVNTKCITIPRSLDGRLQVSHRKGLPHVIYCRLWRWPDLHSHHELRAMELCEFAFNMKKDEVCVNPYHYQRVETPVLPPVLVPRHTEIPAEFPPLDDYSHSIPENTNFPAGIEPQSNIPETPPPGYLSEDGETSDHQMNHSMDAGSPNLSPNPMSPAHNNLDLQPVTYCEPAFWCSISYYELNQRVGETFHASQPSMTVDGFTDPSNSERFCLGLLSNVNRNAAVELTRRHIGRGVRLYYIGGEVFAECLSDSAIFVQSPNCNQRYGWHPATVCKIPPGANLKIFNNQEFAALLAQSVNQGFEAVYQLTRMCTIRMSFVKGWGAEYRRQTVTSTPCWIELHLNGPLQWLDKVLTQMGSPSIRCSSVS
notes: Smad3; source: HEK-293, transfected together with constitutively active Alk5, in lysate
For B1, the “percent binding relative to wild-type Smad3” value with Flag-SARA, full length turned out to be 136%; in the experiment with Flag-Smad4, full length it was 125%; in experiment [1], 188%.

B2: Renilla luciferase-Smad3 P335A/P336A (natural protein, UniProt P84022 1-425, looked up)
chain: MSSILPFTPPIVKRLLGWKKGEQNGQEEKWCEKAVKSLVKKLKKTGQLDELEKAITTQNVNTKCITIPRSLDGRLQVSHRKGLPHVIYCRLWRWPDLHSHHELRAMELCEFAFNMKKDEVCVNPYHYQRVETPVLPPVLVPRHTEIPAEFPPLDDYSHSIPENTNFPAGIEPQSNIPETPPPGYLSEDGETSDHQMNHSMDAGSPNLSPNPMSPAHNNLDLQPVTYCEPAFWCSISYYELNQRVGETFHASQPSMTVDGFTDPSNSERFCLGLLSNVNRNAAVELTRRHIGRGVRLYYIGGEVFAECLSDSAIFVQSPNCNQRYGWHPATVCKIAAGCNLKIFNNQEFAALLAQSVNQGFEAVYQLTRMCTIRMSFVKGWGAEYRRQTVTSTPCWIELHLNGPLQWLDKVLTQMGSPSIRCSSVS
notes: as for B1
As to B2, the “percent binding relative to wild-type Smad3” value with Flag-SARA, full length turned out to be 16%; in the experiment with Flag-Smad4, full length it was 309%; in experiment [1] it was 356%.

B3: Renilla luciferase-Smad3 Y297A (natural protein, UniProt P84022 1-425, looked up)
chain: MSSILPFTPPIVKRLLGWKKGEQNGQEEKWCEKAVKSLVKKLKKTGQLDELEKAITTQNVNTKCITIPRSLDGRLQVSHRKGLPHVIYCRLWRWPDLHSHHELRAMELCEFAFNMKKDEVCVNPYHYQRVETPVLPPVLVPRHTEIPAEFPPLDDYSHSIPENTNFPAGIEPQSNIPETPPPGYLSEDGETSDHQMNHSMDAGSPNLSPNPMSPAHNNLDLQPVTYCEPAFWCSISYYELNQRVGETFHASQPSMTVDGFTDPSNSERFCLGLLSNVNRNAAVELTRRHIGRGVRLAYIGGEVFAECLSDSAIFVQSPNCNQRYGWHPATVCKIPPGCNLKIFNNQEFAALLAQSVNQGFEAVYQLTRMCTIRMSFVKGWGAEYRRQTVTSTPCWIELHLNGPLQWLDKVLTQMGSPSIRCSSVS
notes: as for B1
Regarding B3, the “percent binding relative to wild-type Smad3” value in the experiment with Flag-SARA, full length is 38%.

B4: Renilla luciferase-Smad3 E267A (natural protein, UniProt P84022 1-425, looked up)
chain: MSSILPFTPPIVKRLLGWKKGEQNGQEEKWCEKAVKSLVKKLKKTGQLDELEKAITTQNVNTKCITIPRSLDGRLQVSHRKGLPHVIYCRLWRWPDLHSHHELRAMELCEFAFNMKKDEVCVNPYHYQRVETPVLPPVLVPRHTEIPAEFPPLDDYSHSIPENTNFPAGIEPQSNIPETPPPGYLSEDGETSDHQMNHSMDAGSPNLSPNPMSPAHNNLDLQPVTYCEPAFWCSISYYELNQRVGETFHASQPSMTVDGFTDPSNSARFCLGLLSNVNRNAAVELTRRHIGRGVRLYYIGGEVFAECLSDSAIFVQSPNCNQRYGWHPATVCKIPPGCNLKIFNNQEFAALLAQSVNQGFEAVYQLTRMCTIRMSFVKGWGAEYRRQTVTSTPCWIELHLNGPLQWLDKVLTQMGSPSIRCSSVS
notes: as for B1
Take B4: the “percent binding relative to wild-type Smad3” value is 82% with Flag-SARA, full length; 458% in the experiment with Flag-Smad4, full length; 1150% in experiment [1].

B5: Renilla luciferase-Smad3 K341A (natural protein, UniProt P84022 1-425, looked up)
chain: MSSILPFTPPIVKRLLGWKKGEQNGQEEKWCEKAVKSLVKKLKKTGQLDELEKAITTQNVNTKCITIPRSLDGRLQVSHRKGLPHVIYCRLWRWPDLHSHHELRAMELCEFAFNMKKDEVCVNPYHYQRVETPVLPPVLVPRHTEIPAEFPPLDDYSHSIPENTNFPAGIEPQSNIPETPPPGYLSEDGETSDHQMNHSMDAGSPNLSPNPMSPAHNNLDLQPVTYCEPAFWCSISYYELNQRVGETFHASQPSMTVDGFTDPSNSERFCLGLLSNVNRNAAVELTRRHIGRGVRLYYIGGEVFAECLSDSAIFVQSPNCNQRYGWHPATVCKIPPGCNLAIFNNQEFAALLAQSVNQGFEAVYQLTRMCTIRMSFVKGWGAEYRRQTVTSTPCWIELHLNGPLQWLDKVLTQMGSPSIRCSSVS
notes: as for B1
With B5, the “percent binding relative to wild-type Smad3” value with Flag-SARA, full length is 29%; in the experiment with Flag-Smad4, full length, 275%; in experiment [1], 27%.

B6: Renilla luciferase-Smad3 L340A (natural protein, UniProt P84022 1-425, looked up)
chain: MSSILPFTPPIVKRLLGWKKGEQNGQEEKWCEKAVKSLVKKLKKTGQLDELEKAITTQNVNTKCITIPRSLDGRLQVSHRKGLPHVIYCRLWRWPDLHSHHELRAMELCEFAFNMKKDEVCVNPYHYQRVETPVLPPVLVPRHTEIPAEFPPLDDYSHSIPENTNFPAGIEPQSNIPETPPPGYLSEDGETSDHQMNHSMDAGSPNLSPNPMSPAHNNLDLQPVTYCEPAFWCSISYYELNQRVGETFHASQPSMTVDGFTDPSNSERFCLGLLSNVNRNAAVELTRRHIGRGVRLYYIGGEVFAECLSDSAIFVQSPNCNQRYGWHPATVCKIPPGCNAKIFNNQEFAALLAQSVNQGFEAVYQLTRMCTIRMSFVKGWGAEYRRQTVTSTPCWIELHLNGPLQWLDKVLTQMGSPSIRCSSVS
notes: as for B1
Turning to B6, the “percent binding relative to wild-type Smad3” value with Flag-SARA, full length came to 58%; with Flag-Smad4, full length, 181%; in experiment [1] it was 194%.
